Columns and labels:
Assay in all cases: BLI (Octet), F on anti-HIS tip, 20 nM mAb
[1] = molecular target: T1, RSV F protein mutant pXCS842 (RSV A2, UniProt P03420 26-109)
T1 chain 1: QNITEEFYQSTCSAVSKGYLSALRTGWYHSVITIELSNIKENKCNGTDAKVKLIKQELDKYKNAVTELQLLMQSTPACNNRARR
T1 chain 2: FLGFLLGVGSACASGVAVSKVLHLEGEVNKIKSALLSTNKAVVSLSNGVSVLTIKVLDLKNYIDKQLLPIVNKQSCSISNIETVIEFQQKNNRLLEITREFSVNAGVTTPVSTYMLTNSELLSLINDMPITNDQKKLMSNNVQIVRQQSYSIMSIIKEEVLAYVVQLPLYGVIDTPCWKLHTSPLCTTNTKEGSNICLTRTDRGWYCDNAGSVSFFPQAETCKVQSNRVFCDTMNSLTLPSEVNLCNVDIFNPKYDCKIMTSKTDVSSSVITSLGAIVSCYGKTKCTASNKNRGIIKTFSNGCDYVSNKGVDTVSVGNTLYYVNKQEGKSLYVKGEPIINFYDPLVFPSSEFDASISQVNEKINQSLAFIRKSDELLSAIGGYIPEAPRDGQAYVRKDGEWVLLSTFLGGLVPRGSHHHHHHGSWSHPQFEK

[2] = molecular target: T2, RSV F protein mutant pXCS738 (RSV A2, UniProt P03420 26-109)
T2 chain 1: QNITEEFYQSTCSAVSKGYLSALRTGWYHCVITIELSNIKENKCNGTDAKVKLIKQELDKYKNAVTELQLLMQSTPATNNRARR
T2 chain 2: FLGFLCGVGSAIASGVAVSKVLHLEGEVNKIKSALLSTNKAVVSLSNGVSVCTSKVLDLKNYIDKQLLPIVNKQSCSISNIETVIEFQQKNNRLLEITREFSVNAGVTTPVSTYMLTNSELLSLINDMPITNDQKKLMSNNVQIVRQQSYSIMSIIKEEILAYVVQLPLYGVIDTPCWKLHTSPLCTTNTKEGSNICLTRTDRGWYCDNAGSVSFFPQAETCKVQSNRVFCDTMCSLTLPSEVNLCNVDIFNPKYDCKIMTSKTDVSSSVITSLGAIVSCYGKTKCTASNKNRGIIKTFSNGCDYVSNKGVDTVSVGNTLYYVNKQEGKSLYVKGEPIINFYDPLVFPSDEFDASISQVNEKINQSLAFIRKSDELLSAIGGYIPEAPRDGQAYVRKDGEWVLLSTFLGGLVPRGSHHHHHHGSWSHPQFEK

[3] = molecular target: RSV F protein mutant pXCS787 (RSV A2, UniProt P03420 26-109)
[4] = molecular target: T3, RSV F protein mutant pXCS892 (RSV A2, UniProt P03420 26-109)
T3 chain 1: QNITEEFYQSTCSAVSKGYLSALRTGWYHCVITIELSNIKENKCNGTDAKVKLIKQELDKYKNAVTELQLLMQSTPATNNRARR
T3 chain 2: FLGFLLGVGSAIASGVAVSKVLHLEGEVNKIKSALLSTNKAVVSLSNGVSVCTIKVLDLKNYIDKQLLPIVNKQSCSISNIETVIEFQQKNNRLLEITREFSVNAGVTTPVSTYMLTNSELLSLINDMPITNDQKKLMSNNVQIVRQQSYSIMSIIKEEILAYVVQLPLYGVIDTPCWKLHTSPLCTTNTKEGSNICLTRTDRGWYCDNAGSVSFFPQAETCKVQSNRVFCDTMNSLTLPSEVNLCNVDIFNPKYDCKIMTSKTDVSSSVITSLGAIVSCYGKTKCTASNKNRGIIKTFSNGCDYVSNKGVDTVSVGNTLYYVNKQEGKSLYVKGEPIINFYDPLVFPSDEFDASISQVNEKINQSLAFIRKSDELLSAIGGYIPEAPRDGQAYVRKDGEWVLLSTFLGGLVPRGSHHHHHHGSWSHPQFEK

[5] = molecular target: RSV F protein mutant pXCS781 (RSV A2, UniProt P03420 26-109)
[6] = molecular target: RSV F protein mutant pXCS780 (RSV A2, UniProt P03420 26-109)
[7] = molecular target: RSV F protein mutant pXCS889 (RSV A2, UniProt P03420 26-109)
[8] = molecular target: RSV F protein mutant pXCS854 (RSV A2, UniProt P03420 26-109)
[9] = molecular target: RSV F protein mutant pXCS740 (RSV A2, UniProt P03420 26-109)
[10] = molecular target: T4, RSV F protein mutant pXCS851 (RSV A2, UniProt P03420 26-109)
T4 chain 1: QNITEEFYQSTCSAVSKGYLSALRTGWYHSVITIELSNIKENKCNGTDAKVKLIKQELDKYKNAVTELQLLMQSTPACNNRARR
T4 chain 2: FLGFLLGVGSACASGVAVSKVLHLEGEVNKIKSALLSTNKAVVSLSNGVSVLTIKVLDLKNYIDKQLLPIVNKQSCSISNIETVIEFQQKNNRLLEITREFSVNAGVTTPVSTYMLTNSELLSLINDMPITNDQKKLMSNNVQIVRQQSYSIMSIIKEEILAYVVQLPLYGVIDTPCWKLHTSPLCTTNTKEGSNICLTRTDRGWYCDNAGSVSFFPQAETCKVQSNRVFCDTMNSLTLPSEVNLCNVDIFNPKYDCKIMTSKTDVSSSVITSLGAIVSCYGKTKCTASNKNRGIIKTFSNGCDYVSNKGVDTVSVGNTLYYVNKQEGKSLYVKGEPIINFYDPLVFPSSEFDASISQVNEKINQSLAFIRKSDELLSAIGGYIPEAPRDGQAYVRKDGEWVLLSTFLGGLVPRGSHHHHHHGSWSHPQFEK

Binder | Response (nm shift) [1] [nm] | Response (nm shift) [2] [nm] | Response (nm shift) [3] [nm] | Response (nm shift) [4] [nm] | Response (nm shift) [5] [nm] | Response (nm shift) [6] [nm] | Response (nm shift) [7] [nm] | Response (nm shift) [8] [nm] | Response (nm shift) [9] [nm] | Response (nm shift) [10] [nm]
MPE8 (antibody, V domains shown, also called MPEG) VH: EVQLVESGGGLVKPGGSLRLSCAASGFTFSSYSMNWVRQAPGKGLEWVSSISASSSYSDYADSAKGRFTISRDNAKTSLFLQMNSLRAEDTAIYFCARARATGYSSITPYFDIWGQGTLVTVSS VL: QSVVTQTPSVSGAPGQRVTISCTGSSSNIGAGYDVHWYQQLPGTAPKLLIYDNNNRPSGVPDRFSASKSGTSASLAITGLQAEDEADYYCQSYDRNLSGVFGTGTKVTVL | 0.932 | 0.741 | 0.621 | 1.03 | 0.876 | 0.608 | 0.889 | 0.886 | 0.546 | 1.02
AM22 (antibody, V domains shown) VH: QVQLVQSGAEVKKPGATVKVSCKISGHTLIKLSIHWVRQAPGKGLEWMGGYEGEVDEIFYAQKFQHRLTVIADTATDTVYMELGRLTSDDTAVYFCGTLGVTVTEAGLGIDDYWGQGTLVTVSS VL: EIVLTQSPGTLSLSPGERATLSCRASQIVSRNHLAWYQQKPGQAPRLLIFGASSRATGIPVRFSGSGSGTDFTLTINGLAPEDFAVYYCLSSDSSIFTFGPGTKVDFK | 0.493 | 0.273 | 0.225 | 0.542 | 0.423 | 0.29 | 0.477 | 0.453 | 0.172 | 0.508
